Source: patent US20180327803A1
Changes are numbered by the printed parent chain.

How the values were obtained:
[1] = biological target: human serum-derived IgG polyclonal antibody (#I4506; Sigma-Aldrich) (human); experiment: scFv-immobilized HiTrap NHS column
[2] = biological target: human IgG1 antibody (#I5154; Sigma-Aldrich) (human); experiment: SPR, single cycle kinetics, IgG1 chip
[3] = biological target: human serum-derived IgA polyclonal antibody (#I4036; Sigma-Aldrich) (human); experiment: SPR, lysate, human IgA chip
[4] = biological target: human IgG3 antibody (#I5654; Sigma-Aldrich) (human); experiment: ELISA
[5] = biological target: human IgG4 antibody (#I4639; Sigma-Aldrich) (human); experiment: ELISA
[6] = biological target: human serum-derived IgA polyclonal antibody (#I4036; Sigma-Aldrich) (human); experiment: ELISA
[7] = biological target: human IgG2 antibody (#I5404; Sigma-Aldrich) (human); experiment: ELISA
[8] = biological target: human IgG1 antibody (#I5154; Sigma-Aldrich) (human); experiment: ELISA
[9] = biological target: human serum-derived IgG polyclonal antibody (#I4506; Sigma-Aldrich) (human); experiment: SPR, lysate, human IgG chip
[10] = biological target: human serum-derived IgG polyclonal antibody (#I4506; Sigma-Aldrich) (human); experiment: ELISA

B1: R3-26 rabbit-derived single-chain antibody-His (scFv)
scFv: QEQLVESGGGLVKPGGTLTLTCTVSGIDLSSYAMSWVRQVPGKGLEWIGIIGSGGGTAYANWAKGRFTISKTSSTTVDLKMTSLTTEDTATYFCATDYGIYGYAYGHLWGPGTLVTVTSGGGGSGGGGSGGGGSELVMTQTASPVSAAVGGTVTIKCQASQSISTALAWYQQRPGQPPKLLIYDASTLASGVSSRFKGSGSGTEFTLTISDLECADAATYYCQTYFGSDTDNAFGEGTEVEITGSHHHHHH
Binder B1 has an amount of IgG adsorbed to the column and eluted [1] of 5.3 mg, a percent of supplied IgG adsorbed to the column and eluted [1] of 53% and a Kd [2] of 2.1 nM. For the same binder, the koff [2] was 4.3e-05 s⁻¹ and the kon [2] was 21000 M⁻¹ s⁻¹.

B2: IgA R3-1 (scFv, not shown: small tags and cut ends)
scFv: QSVKESGGRLVTPGTPLTLTCTVSGIDLSSNAMSWVRQAPGEGLEWIGTISTVGKTYFASWAKGRFTISKTSTTVDLRITSPTTEDTATYFCATRYDSYGYAYNYWFGTLWGPGTLVTVTSGGGGSGGGGSGGGGSELDLTQTPPSVSGAVGGTVTIKCQASENINSELAWYQQKPGQRPKLLIYDASKLASGVPSRFSGSGSGTEYTLTISGMQCDDAATYYCQSTYYDGNYVYAFGGGTEVDVTRS
Work on B2 yielded a koff [3] of 9.88e-05 s⁻¹, an OD [4] of 3.02 and an OD [5] of 3.07. It also gave an OD [6] of 3, an OD [7] of 3.07 and an OD [8] of 3.09.

B3: IgA R3-18 (scFv, not shown: small tags and cut ends)
scFv: QSLEESGGRLVTPGTPLTLTCTVSGIDLSSNAMTWVRQAPGEGLEWIGTISTGGSTYFASWAKGRFTISKTSTTVDLKITSPTTEDTATYFCATRYDSYGYAYNYWFGTLWGPGTLVTVTSGGGGSGGGGSGGGGSELVMTQTAASVSEPVGGTVTIKCQASQNINNELAWYQQKPGQRPKLLIYDASKLASGVPSRFSGSGSGTEFTLTISGMQCDDAATYYCQSTYYDGNYVYAFGGGTEVDVKGS
For B3, the koff [3] was 0.000181 s⁻¹, the OD [4] was 2.99 and the OD [5] was 3.08. For the same binder, the OD [6] was 3.03, the OD [7] was 3.09 and the OD [8] was 3.09.

B4: R1-27 (scFv, not shown: small tags and cut ends)
scFv: QQQLMESGGGLVTPGTPLTLTCTVSGIDLRRYAMGWVRQAPGKGLQWIGIIASGNTDYASWAKGRFTISATSTTVDLKITSSTTEDTATYFCARYSGDNGGTLNLWGPGTLATVTTGGGGSGGGGSGGGGSELVMTQTAASVSEPVGGTVTIKCQASEHIRNYLAWYQQKPGQPPKLLIYTTSNLASGVPSRFSGSGSGTEYTLTISDLECADAATYYCQNYYDISTYGNTFGGGTEVDVKGS
For B4, the OD [4] was 3.08, the OD [8] was 3.07 and the koff [9] was 0.000859 s⁻¹.

B5: R2-16 (scFv, not shown: small tags and cut ends)
scFv: QSVKESGGRLVTPGTPLTLTCTVSGFSLSSYAMGWVRQAPGKGLEYIGIISSSGSTYYASWAKGRFTISKTSTTVDLKITSPTTEDTATYFCARYSGDNGGALNLWGPGTLVTVTSGGGGSGGGGSGGGGSELDLTQTAASVSEPVGGTVTISCQSSQHIRSYLAWYQQKPGQPPKLLISAASTLASGVSSRFKGSGSGTEFTLTISDLECADAATYYCQRYYDIRNYGNGFGGGTEVEITGS
B5 gave an OD [4] of 3.05, an OD [8] of 3.12 and a koff [9] of 0.000838 s⁻¹.

B6: R2-18 (scFv, not shown: small tags and cut ends)
scFv: B3 scFv
B6 was tested, and the OD [4] was 3.08, the OD [6] was 3.11 and the OD [8] was 3.11. For the same binder, the koff [9] was 0.0008 s⁻¹.

B7: R3-75 (scFv, not shown: small tags and cut ends)
scFv: B2 scFv
B7 showed an OD [4] of 3.12, an OD [5] of 3.11 and an OD [6] of 3.06. For the same binder, the OD [10] was 3.01, the OD [7] was 3.04 and the OD [8] was 3.05. The koff [9] was 0.000278 s⁻¹.

B8: R3-23 (scFv, not shown: small tags and cut ends)
scFv: QSVKESEGRLVTPGTPLTLTCTVSGFSLSRYAVSWVRQAPGKGLEWIGIIGSGGSTSYATWARGRFTISKTSTTVDLKITSPTTEDTVTYFCGSYYDSHGYAYVSLWGPGTLVTVTSGGGGSGGGGSGGGGSELVLTQTPSPVSGAVGGTVTINCQASQSISTALAWYQQKPGQPPKLLIYSASTLASGVSSRFKGSGSGTGFTLTISDLECADAATYYCQSYYGSSSDNAFGGGTEVVIKRS
B8 showed an OD [4] of 3.02, an OD [5] of 3.06 and an OD [10] of 3.04. It also gave an OD [7] of 3.06, an OD [8] of 3.06 and a koff [9] of 0.000408 s⁻¹.

B9: R3-26 (scFv, not shown: small tags and cut ends)
scFv: QEQLVESGGGLVKPGGTLTLTCTVSGIDLSSYAMSWVRQVPGKGLEWIGIIGSGGGTAYANWAKGRFTISKTSSTTVDLKMTSLTTEDTATYFCATDYGIYGYAYGHLWGPGTLVTVTSGGGGSGGGGSGGGGSELVMTQTASPVSAAVGGTVTIKCQASQSISTALAWYQQRPGQPPKLLIYDASTLASGVSSRFKGSGSGTEFTLTISDLECADAATYYCQTYFGSDTDNAFGEGTEVEITGS
B9 showed an OD [4] of 3.14, an OD [5] of 3.16 and an OD [10] of 3.1. For the same binder, the OD [7] was 3.04, the OD [8] was 3.1 and the koff [9] was 0.000571 s⁻¹.

B10: R3-58 (scFv, not shown: small tags and cut ends)
scFv: QQQLMESGGRLVTPGGSLTLTCTVSGIDLNSYAMGWVRQAPGKGLEYIGIIRNSGNTYYASWAKGRFTISKTSSTTVDLKMTSLTTEDTATYFCARYSGDNGGALNLWGPGTLVTVTSGGGGSGGGGSGGGGSELVMTQTAASVSGPVGGTVTIKCQASEFIRNYLAWYQQKPGQPPKLLIYTTSNLASGVPSRFSGSGSGTEYTLTISDLECADAATYYCQNYYDISTYGNAFGGGTEVVVIKGS
Work on B10 yielded an OD [4] of 3.11, an OD [5] of 3.17 and an OD [10] of 3.05. For the same binder, the OD [7] was 3.08, the OD [8] was 3.14 and the koff [9] was 0.000742 s⁻¹.

B11: R3-8 (scFv, not shown: small tags and cut ends)
scFv: B3 scFv with K158N, N164S, N166S, N167D, K189D, M214V, T227A, N232R, D244E, K246T
B11 gave an OD [4] of 3.06, an OD [5] of 3.09 and an OD [6] of 3.06. It also gave an OD [10] of 3.01, an OD [7] of 3.02 and an OD [8] of 3.03. For the same binder, the koff [9] was 0.00088 s⁻¹.
